# Measurements published in patent US20020193327A1.
# Molecular target: protein receptor on Chang C cells (human)
# Assay: 125I-labeled virions on Chang C cells pretreated with 10 µg/ml trypsin, subtilisin, proteinase K or bromelain
substance,measurement,value
Wild-type Ad37 (adenovirus type 37) particles,percent inhibition of specific binding after protease pretreatment of the cells,50%
